Positions count from the first letter of the chain named. Non-standard residues stand in square brackets, D forms with d. No end group written: not given here. fluorescein = fluorescein fluorescent label on the N-terminus; C(fluorescein) = cysteine carrying a fluorescein label; Nle = CCCC[C@H](N)C(=O)O
How the values were obtained:
[1] = molecular target: Fluorescein-LmPBPA11-20 Arg8Ala (L. monocytogenes EGD-e); assay: fluorescence polarisation
[2] = molecular target: Fluorescein-LmPBPA11-20 wildtype (L. monocytogenes EGD-e); assay: fluorescence polarisation
[3] = molecular target: Fluorescein-LmPBPA11-20 Arg12Ala (L. monocytogenes EGD-e); assay: fluorescence polarisation
[4] = molecular target: Fluorescein-LmPBPA11-20 Arg8AlaSer16Arg (L. monocytogenes EGD-e); assay: fluorescence polarisation
[5] = molecular target: TAMRA-SpPBP2a23-45 Arg33Lys (S. pneumoniae R6); assay: fluorescence polarisation
[6] = molecular target: TAMRA-SpPBP2a23-45 Arg33Ala (S. pneumoniae R6); assay: fluorescence polarisation
[7] = molecular target: TAMRA-SpPBP2a23-45 Arg31LysArg33Lys (S. pneumoniae R6); assay: fluorescence polarisation
[8] = molecular target: TAMRA-SpPBP2a23-45 Ser32Ala (S. pneumoniae R6); assay: fluorescence polarisation
[9] = molecular target: TAMRA-SpPBP2a23-45 Arg31Lys (S. pneumoniae R6); assay: fluorescence polarisation
[10] = molecular target: Fluorescein-SpPBP2x1-29 (S. pneumoniae R6); assay: fluorescence polarisation
[11] = molecular target: TAMRA-SpPBP2a23-45 Arg36Ala (S. pneumoniae R6); assay: fluorescence polarisation
[12] = molecular target: TAMRA-SpPBP2a23-45 wildtype (S. pneumoniae R6); assay: fluorescence polarisation
BsGpsB1-68 Tyr25Phe [13] = molecular target: T1, BsGpsB1-68 Tyr25Phe (B. subtilis, UniProt P0CI74 1-68, Tyr25Phe); assay: fluorescence polarisation; details: both partners purified
T1 construct: GpsB, Bacillus subtilis, residues 1-68 (N-terminal domain); also called BsGpsB1-68 Y25F; source: E. coli BL21(DE3), purified (Ni-NTA, thrombin removal of the His6-tag, SEC); not shown: His6, N-terminal, cleaved
T1 sequence (looked up): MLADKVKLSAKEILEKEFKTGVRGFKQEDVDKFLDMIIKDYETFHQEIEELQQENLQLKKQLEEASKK

BsGpsB1-68 Asp31Ala [14] = molecular target: T2, BsGpsB1-68 Asp31Ala (B. subtilis, UniProt P0CI74 1-68, Asp31Ala); assay: fluorescence polarisation; details: both partners purified
T2 construct: GpsB, Bacillus subtilis, residues 1-68 (N-terminal domain); also called BsGpsB1-68 D31A; source: E. coli BL21(DE3), purified (Ni-NTA, thrombin removal of the His6-tag, SEC); not shown: His6, N-terminal, cleaved
T2 sequence (looked up): T1 sequence (looked up) with F25Y, D31A

BsGpsB1-68 Tyr25Phe [15] = molecular target: T1, BsGpsB1-68 Tyr25Phe; assay: fluorescence polarisation; GpsB protein titrated into TAMRA- or fluorescein-labelled peptide; 10 mM Tris.HCl pH 8.0, 250 mM NaCl, 0.1% reduced Triton X-100; all data fitted to a 1:1 interaction model, Kd ± standard error; details: both partners purified
BsGpsB1-68 Asp31Ala [16] = molecular target: T2, BsGpsB1-68 Asp31Ala; assay: as above; details: both partners purified
BsGpsB1-68 = molecular target: T3, BsGpsB1-68 (B. subtilis, UniProt P0CI74 1-68); assay: as above; details: both partners purified
T3 construct: GpsB, Bacillus subtilis, residues 1-68 (N-terminal domain); also called N-terminal domain of B. subtilis GpsB; wildtype BsGpsB1-68; source: E. coli BL21(DE3), purified (Ni-NTA, thrombin removal of the His6-tag, SEC); not shown: His6, N-terminal, cleaved
T3 sequence (looked up): T1 sequence (looked up) with F25Y

BsGpsB1-68 Glu17Ala = molecular target: T4, BsGpsB1-68 Glu17Ala (B. subtilis, UniProt P0CI74 1-68, Glu17Ala); assay: as above; details: both partners purified
T4 construct: GpsB, Bacillus subtilis, residues 1-68 (N-terminal domain); also called BsGpsB1-68 E17A; source: E. coli BL21(DE3), purified (Ni-NTA, thrombin removal of the His6-tag, SEC); not shown: His6, N-terminal, cleaved
T4 sequence (looked up): T1 sequence (looked up) with E17A, F25Y

BsGpsB1-68 Asp35Ala = molecular target: T5, BsGpsB1-68 Asp35Ala (B. subtilis, UniProt P0CI74 1-68, Asp35Ala); assay: as above; details: both partners purified
T5 construct: GpsB, Bacillus subtilis, residues 1-68 (N-terminal domain); also called BsGpsB1-68 D35A; source: E. coli BL21(DE3), purified (Ni-NTA, thrombin removal of the His6-tag, SEC); not shown: His6, N-terminal, cleaved
T5 sequence (looked up): T1 sequence (looked up) with F25Y, D35A

BsGpsB [17] = molecular target: T6, BsGpsB (B. subtilis, UniProt P0CI74 1-98); assay: as above; details: both partners purified
T6 construct: GpsB, Bacillus subtilis, full-length protein; purification not described here; also called full-length B. subtilis GpsB
T6 sequence (looked up): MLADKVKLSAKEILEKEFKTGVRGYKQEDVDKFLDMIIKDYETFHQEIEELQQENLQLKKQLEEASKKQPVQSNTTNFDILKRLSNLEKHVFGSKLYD

BsGpsB [18] = molecular target: T7, BsGpsB (Bacillus subtilis, UniProt P0CI74); assay: BACTH interaction with BsGpsB; format: cell-based; details: E. coli BTH101, nutrient agar, 30 °C
T7 construct: new FP data concerning full length BsGpsB have now been added to; made in house; host or cells: E. coli BL21(DE3)

SpGpsB_(1-63) = molecular target: T8, SpGpsB_(1-63) (S. pneumoniae R6, UniProt Q8DR57 1-63); assay: fluorescence polarisation; details: both partners purified
T8 construct: GpsB, Streptococcus pneumoniae R6, residues 1-63 (stop codon in place of Pro64); also called N-terminal domain of SpGpsB; wildtype SpGpsB_(1-63); source: E. coli, purified (Ni-NTA, thrombin, ammonium sulphate precipitation, gel filtration)
T8 sequence (looked up): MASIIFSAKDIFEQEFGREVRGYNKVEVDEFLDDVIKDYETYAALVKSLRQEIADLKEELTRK

[19] = molecular target: LmPBPA1_(1-20)^Tyr11Ala (L. monocytogenes EGD-e); assay: fluorescence polarisation
[20] = molecular target: Q10P-mutated LmPBPA1 peptide (taken as LmPBPA1_(1-20)^Gln10Pro) (L. monocytogenes EGD-e); assay: fluorescence polarisation
[21] = molecular target: LmPBPA1_(1-20)^Arg8Ala (L. monocytogenes EGD-e); assay: fluorescence polarisation
[22] = molecular target: LmPBPA1_(1-20)^Arg12Ala (L. monocytogenes EGD-e); assay: fluorescence polarisation
[23] = molecular target: LmPBPA1_(1-20)^Arg8Ala,Ser16Arg (L. monocytogenes EGD-e); assay: fluorescence polarisation
[24] = molecular target: T9, BsYpbE_(1-21), fluorescein-labelled (B. subtilis, UniProt P50731 1-21, fluorescein (position not given)); assay: fluorescence polarisation; details: both partners purified
T9 construct: also called 21-residue fragment of the cytoplasmic domain of BsYpbE; source: synthetic peptide
T9 peptide: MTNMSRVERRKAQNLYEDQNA

[25] = molecular target: T10, BsPBP1_(1-32), TAMRA-labelled at position 16 (B. subtilis, UniProt P39793 1-32, Ser16Cys, TAMRA (maleimide) at position 16); assay: fluorescence polarisation; GpsB protein titrated into fluorescently labelled peptide; 10 mM Tris.HCl pH 8.0, 250 mM NaCl, 0.1% reduced Triton X-100; fit to a 1:1 interaction model; details: both partners purified
T10 construct: PBP1, Bacillus subtilis, residues 1-32; also called BsPBPA1_(1-32); BsPBP1A_(1-32); source: E. coli, His-tagged MBP fusion purified (Ni-NTA), labelled, TEV-cleaved, ultrafiltration
T10 peptide (looked up): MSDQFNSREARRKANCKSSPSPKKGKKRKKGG

[26] = molecular target: T11, BsYrrS_(1-18), fluorescein-labelled (B. subtilis, UniProt O32031 1-18, also: fluorescein label, position not given here); assay: as above; details: both partners purified
T11 construct: YrrS, Bacillus subtilis, residues 1-18; also called entire cytoplasmic mini-domain of BsYrrS
T11 peptide (looked up): MSNNQSRYENRDKRRKAN

Molecule: BsGpsB1-68 Lys32Glu (from UniProt P0CI74 1-68) (domain or fragment)
- Kd [1]: > 3000 µM
- Kd [2]: 190 µM
- Kd [3]: 800 µM
- Kd [4]: > 2000 µM

Molecule: SpGpsB1-63 (domain or fragment)
- Kd [5]: 360 µM
- Kd [6]: 530 µM
- Kd [7]: > 2000 µM
- Kd [8]: 210 µM
- Kd [9]: 150 µM
- Kd [10]: 370 µM
- Kd [11]: 270 µM

Molecule: SpGpsB1-63 Asp33Ala (domain or fragment)
- Kd [12]: > 3000 µM

B1: Fluoroescein-BsYpbE1-21 (peptide)
chain: fluorescein-[Nle]TN[Nle]SRVERRKAQNLYEDQNA
- Kd (BsGpsB1-68 Tyr25Phe [13]): > 500 µM
- Kd (BsGpsB1-68 Asp31Ala [14]): > 500 µM

B2: Fluoroescein-BsYrrS1-18 (peptide)
chain: MSNNQSRYENRDKRRKAN-{C(fluorescein)}
- Kd (BsGpsB1-68 Tyr25Phe [15]): > 3000 µM
- Kd (BsGpsB1-68 Asp31Ala [16]): > 3000 µM

B3: TAMRA-BsPBP11-32 wildtype (peptide)
peptide: GSMADQFNSREARRKANC(TAMRA‑maleimide)KSSPSPKKGKKRKKGG
notes: PBP1 (ponA), Bacillus subtilis, residues 1-32, cytoplasmic mini-domain; also called TAMRA-labelled BsPBP1 1-32 (Ser16Cys); 16-labelled peptide
- Kd (BsGpsB1-68 Tyr25Phe [15]): > 2000 µM
- Kd (BsGpsB1-68): 120 µM
- Kd (BsGpsB1-68 Glu17Ala): > 1300 µM
- Kd (BsGpsB1-68 Asp35Ala): > 2000 µM
- Kd (BsGpsB1-68 Asp31Ala [16]): > 1900 µM
- Kd (BsGpsB [17]): 160 µM

B4: BsYpbE: B. subtilis YpbE, LysM-domain membrane protein (protein, UniProt P50731 1-240, looked up)
Uncharacterized protein YpbE: MTNMSRVERRKAQNLYEDQNAALADDYVDDGESLPTRQSVKNQREQKKKQGKTKTPLFTVLAVIFVFVPVIVLVTLFYLKSHPDNHDDYEDVFIDSSQSKYEVVPKSEDKNDTADTKETALQKESKKEPEDSKPKEQTAADKKQTAVAEKEDSPNKEEATAAAASSSQSTVQQQEQPAEPVQNVPNRVVKHTVQKKETLYRISMKYYKSRTGEEKIRAYNHLNGNDVYTGQVLDIPLMDE
- BACTH interaction with BsGpsB (BsGpsB [18]): detected

B5: SpPBP2a_(23-45), TAMRA-labelled (peptide)
peptide: DSDSTILRRSRSDRKKLAQVCPI
modifications: also: TAMRA (maleimide) label, site not given here
notes: source: E. coli, His-tagged MBP fusion purified (Ni-NTA), labelled, TEV-cleaved, ultrafiltration
- Kd (SpGpsB_(1-63)): 80 µM

B6: SpPBP2x_(1-29), fluorescently labelled (peptide)
peptide: GSGMKWTKRVIRYATKNRKSPAENRRRVGKSLCS
modifications: also: TAMRA or fluorescein maleimide label, which one and site not given here
notes: as for B5
- binding result (SpGpsB_(1-63)): binds

B7: BsGpsB_(1-68)^Lys32Glu (domain or fragment)
chain: T1 sequence (looked up) with F25Y, K32E
- fold reduction in affinity against wild type [19]: 2 fold
- fold reduction in affinity against wild type [20]: > 7 fold
- fold reduction in affinity against wild type [21]: > 15 fold
- fold reduction in affinity against wild type [22]: 4 fold
- fold weaker affinity than wild type [23]: > 10 fold

B8: BsGpsB_(1-68)^Asp31Ala (domain or fragment, B. subtilis, UniProt P0CI74 1-68, looked up)
chain: T1 sequence (looked up) with F25Y, D31A
notes: GpsB, Bacillus subtilis, residues 1-68; also called BsGpsB^Asp31Ala; source: E. coli, purified (Ni-NTA, thrombin, size exclusion)
- fold reduction in affinity against wild type [24]: ~40 fold
- fold reduction in affinity against wild type [25]: > 8 fold
- fold reduction in affinity against wild type [26]: 7 fold

B9: BsGpsB_(1-68)^Tyr25Phe (domain or fragment, B. subtilis, UniProt P0CI74 1-68, looked up)
chain: T1 sequence (looked up)
notes: GpsB, Bacillus subtilis, residues 1-68; the making of this mutant is not described in the methods; also called BsGpsB^Tyr25Phe; source: E. coli, purified (Ni-NTA, thrombin, size exclusion)
- fold reduction in affinity against wild type [24]: ~40 fold
- fold reduction in affinity against wild type [25]: > 8 fold
- fold reduction in affinity against wild type [26]: 7 fold

B10: BsYrrS: B. subtilis YrrS (protein, UniProt O32031 1-233, looked up)
Uncharacterized membrane …: MSNNQSRYENRDKRRKANLVLNILIAIVSILIVVVAANLFINSPSSKDVSKDSETAQKQESPASGKTEKKSDEDIKDSKKDTSDSEKDSEKSSDSDSKKDDSSSKKDDSDSDSSSDSAGDGLKDAKVTEGGSSSDVEKTYENPDWKAVGTEQTGEHAATYDSSSQDWAEMLKAISYATGVSTDNMTVLWLGNNGSPQDAKGKILDKATGNKYQVTITWVDEKGWKPTKVEKLK
- BACTH interaction with BsGpsB (BsGpsB [18]): detected

Source: PMC6335420, “The cell cycle regulator GpsB functions as cytosolic adaptor for multiple cell wall enzymes” (Nature Communications, 2019)
